Measurements as given in patent US20240018502A1.
Where a chain is given by its changes, count along the chain named. In names and notes the source's numbering stands.

B1: MTSP-1 Q38H/I41S/D60bT/F60eS/Y60gW/F97D/ins97aV/T98P/F99L/C122S/G151H/Q175A/Q192D (enzyme)
chain: VVGGTDADEGEWPWQVSLHALGHGHSCGASLISPNWLVSAAHCYIDTRGSRWSDPTQWTAFLGLHDQSQRSAPGVQERRLKRIISHPFFNDDVPLDYDIALLELEKPAEYSSMVRPISLPDASHVFPAGKAIWVTGWGHTQYGGTHALILQKGEIRVINQTTCENLLPQAITPRMMCVGFLSGGVDSCDGDSGGPLSSVEADGRIFQAGVVSWGDGCAQRNKPGVYTRLPLFRDWIKENTGV
B2: MTSP-1 Q38H/I41S/D60bT/ins97aV/F97D/T98P/F99L/C122S/I136V/Q192G/D217S (enzyme)
chain: B1 chain with S50F, W52Y, I132V, H146G, A170Q, D189G, D215S
B3: MTSP-1 Q38H/I41A/D60bV/F60eR/ins97aE/F97T/T98G/F99L/C122S/G151N/Q175L/Q192D (enzyme)
chain: B1 chain with S26A, T47V, S50R, W52Y, D92T, V93E, P94G, H146N, A170L
B4: MTSP-1 Q38H/I41S/D60bT/F60eS/Y60gW/ins97aV/F97D/T98P/F99L/C122S/G151H/Q175L/Q192V (enzyme)
chain: B1 chain with A170L, D189V
B5: MTSP-1 Q38H/I41S/D60bA/F60eV/ins97aE/F97T/T98G/F99L/C122S/Q175L/Q192V (enzyme)
chain: B1 chain with T47A, S50V, W52Y, D92T, V93E, P94G, H146G, A170L, D189V
B6: MTSP-1 Q38H/I41A/D60bV/F60eI/Y60gW/ins97aE/F97T/T98G/F99L/C122S/G151H/Q175L/Q192D (enzyme)
chain: B1 chain with S26A, T47V, S50I, D92T, V93E, P94G, A170L
B7: MTSP-1 Q38H/I41A/D60bT/F60eK/Y60gW/F97T/ins97aE/T98G/F99L/C122S/Q175L/Q192A (enzyme)
chain: B1 chain with S26A, S50K, D92T, V93E, P94G, H146G, A170L, D189A
B8: MTSP-1 Q38F/I41A/D60bT/F60eG/Y60gW/ins97aE/F97T/T98G/F99L/C122S/Q175L/Q192E (enzyme)
chain: B1 chain with H23F, S26A, S50G, D92T, V93E, P94G, H146G, A170L, D189E
B9: MTSP-1 Q38H/H40P/I41A/F60eQ/Y60gW/F97T/ins97aE/T98G/F99L/C122S/Q175L/Q192D (enzyme)
chain: B1 chain with H25P, S26A, T47D, S50Q, D92T, V93E, P94G, H146G, A170L
B10: MTSP-1 Q38H/I41S/D60bT/F60eS/ins97aV/F97D/T98P/F99L/C122S/G151H/Q175L/Q192V (enzyme)
chain: B1 chain with W52Y, A170L, D189V
B11: MTSP-1 Q38R/I41T/D60bT/ins97aV/F97D/T98P/F99L/C122S/I136V/Q192G/D217N/L233Q (enzyme)
chain: B1 chain with H23R, S26T, S50F, W52Y, I132V, H146G, A170Q, D189G, D215N, L231Q
B12: MTSP-1 Q38H/I41A/D60bT/F60eK/Y60gW/ins97aE/F97T/T98G/F99L/C122S/G151H/Q175L/Q192D (enzyme)
chain: B1 chain with S26A, S50K, D92T, V93E, P94G, A170L
B13: MTSP-1 Q38H/I41A/D60bV/F60eH/ins97aE/F97T/T98G/F99L/C122S/Q175L/Q192D (enzyme)
chain: B1 chain with S26A, T47V, S50H, W52Y, D92T, V93E, P94G, H146G, A170L
B14: MTSP-1 I41S/D60bT/F93L/ins97aV/F97D/T98P/F99L/C122S/Q192G/D217H (enzyme)
chain: B1 chain with H23Q, S50F, W52Y, F88L, H146G, A170Q, D189G, D215H
B15: MTSP-1 Q38H/I41S/D60bA/F60eV/ins97aE/F97T/T98G/F99L/C122S/Q175L/Q192E/Q209L (enzyme)
chain: B1 chain with T47A, S50V, W52Y, D92T, V93E, P94G, H146G, A170L, D189E, Q207L
B16: MTSP-1 Q38H/I41S/D60bT/F60eR/ins97aE/F97T/T98G/F99L/C122S/Q175L/Q192E (enzyme)
chain: B1 chain with S50R, W52Y, D92T, V93E, P94G, H146G, A170L, D189E
B17: MTSP-1 Q38H/I41A/D60bT/F60eK/ins97aE/F97T/T98G/F99L/C122S/Q175L/Q192E (enzyme)
chain: B1 chain with S26A, S50K, W52Y, D92T, V93E, P94G, H146G, A170L, D189E
B18: MTSP-1 Q38E/I41S/D60bV/F60eK/Y60gW/ins97aE/F97T/T98G/F99L/C122S/G151H/Q175L/Q192D (enzyme)
chain: B1 chain with H23E, T47V, S50K, D92T, V93E, P94G, A170L
B19: MTSP-1 Q38H/I41S/D60bT/F60eS/Y60gW/ins97aV/F97D/T98P/F99L/C122S/G151N/Q175A/Q192D (enzyme)
chain: B1 chain with H146N
B20: MTSP-1 Q38E/I41S/D60bT/F60eR/F97T/ins97aE/T98G/F99L/C122S/Q175L/Q192V (enzyme)
chain: B1 chain with H23E, S50R, W52Y, D92T, V93E, P94G, H146G, A170L, D189V
B21: MTSP-1 Q38Y/I41S/D60bR/F60eE/Y60gF/ins97aE/F97T/T98G/F99L/C122S/Q175L/Q192V (enzyme)
chain: B1 chain with H23Y, T47R, S50E, W52F, D92T, V93E, P94G, H146G, A170L, D189V
B22: MTSP-1 Q38H/I41S/P49Q/D60bS/F93L/ins97aV/F97D/T98P/F99L/C122S/Q192G/D217Q (enzyme)
chain: B1 chain with P34Q, T47S, S50F, W52Y, F88L, H146G, A170Q, D189G, D215Q
B23: MTSP-1 Q38E/I41A/D60bH/ins97aV/F97D/T98P/F99L/C122S/Q192G/Q209L/D217H (enzyme)
chain: B1 chain with H23E, S26A, T47H, S50F, W52Y, H146G, A170Q, D189G, Q207L, D215H
B24: MTSP-1 Q38H/I41A/D60bW/ins97aV/F97D/T98P/F99L/C122S/I136M/Q192G/D217N (enzyme)
chain: B1 chain with S26A, T47W, S50F, W52Y, I132M, H146G, A170Q, D189G, D215N
B25: MTSP-1 Q38H/I41A/D60bE/F60eH/Y60gW/ins97aE/F97T/T98G/F99L/C122S/G151H/Q175L/Q192D (enzyme)
chain: B1 chain with S26A, T47E, S50H, D92T, V93E, P94G, A170L
B26: MTSP-1 Q38H/I41A/F60eH/Y60gW/ins97aE/F97T/T98G/F99L/C122S/Q175L/Q192A (enzyme)
chain: B1 chain with S26A, T47D, S50H, D92T, V93E, P94G, H146G, A170L, D189A
B27: MTSP-1 Q38H/I41A/D60bV/F60eA/Y60gW/F97T/ins97aE/T98G/F99L/C122S/Q175L/Q192V (enzyme)
chain: B1 chain with S26A, T47V, S50A, D92T, V93E, P94G, H146G, A170L, D189V
B28: MTSP-1 Q38H/I41A/D60bK/F60eK/Y60gW/F97T/ins97aE/T98G/F99L/C122S/Q175L/Q192D (enzyme)
chain: B1 chain with S26A, T47K, S50K, D92T, V93E, P94G, H146G, A170L
B29: MTSP-1 Q38H/I41A/D60bT/F60eH/Y60gW/F97T/ins97aE/T98G/F99L/C122S/G151N/Q175L/Q192D (enzyme)
chain: B1 chain with S26A, S50H, D92T, V93E, P94G, H146N, A170L
B30: MTSP-1 Q38H2I/I41S/F97T/ins97aE/T98G/F99L/C122S/Q175L/Q192V (enzyme)
chain: B1 chain with H23K, T47D, S50F, W52Y, D92T, V93E, P94G, H146G, A170L, D189V
B31: MTSP-1 Q38H/I41S/D60bT/F60eS/Y60gW/ins97aV/F97D/T98P/F99L/C122S/G151N/Q175L/Q192E (enzyme)
chain: B1 chain with H146N, A170L, D189E
B32: MTSP-1 Q38H/I41S/D60bS/ins97aV/F97D/T98P/F99L/M117L/C122S/I136T/Q192G/D217I (enzyme)
chain: B1 chain with T47S, S50F, W52Y, M113L, I132T, H146G, A170Q, D189G, D215I
B33: MTSP-1 Q38H/I41A/D60bT/F60eR/F97T/ins97aE/T98G/F99L/C122S/Q175L/Q192V (enzyme)
chain: B1 chain with S26A, S50R, W52Y, D92T, V93E, P94G, H146G, A170L, D189V
B34: MTSP-1 Q38H/I41S/L52M/D60bG/ins97aV/F97D/T98P/F99L/M117K/C122S/I136L/Q192G/D217A (enzyme)
chain: B1 chain with L37M, T47G, S50F, W52Y, M113K, I132L, H146G, A170Q, D189G, D215A
B35: MTSP-1 I41T/D60bH/ins97aV/F97D/T98P/F99L/C122S/Q192G/D217I (enzyme)
chain: B1 chain with H23Q, S26T, T47H, S50F, W52Y, H146G, A170Q, D189G, D215I
B36: MTSP-1 Q38H/I41A/D60bY/F60eT/ins97aE/F97T/T98G/F99L/C122S/Q175L/Q192D (enzyme)
chain: B1 chain with S26A, T47Y, S50T, W52Y, D92T, V93E, P94G, H146G, A170L
B37: MTSP-1 D60bY/F97T/ins97aE/T98G/F99L/C122S/Q175L/Q192G (enzyme)
chain: VVGGTDADEGEWPWQVSLHALGQGHICGASLISPNWLVSAAHCYIDYRGFRYSDPTQWTAFLGLHDQSQRSAPGVQERRLKRIISHPFFNDTEGLDYDIALLELEKPAEYSSMVRPISLPDASHVFPAGKAIWVTGWGHTQYGGTGALILQKGEIRVINQTTCENLLPQLITPRMMCVGFLSGGVDSCGGDSGGPLSSVEADGRIFQAGVVSWGDGCAQRNKPGVYTRLPLFRDWIKENTGV
B38: MTSP-1 Q38L/H40P/I41T/D60bV/F60eH/Y60gL/ins97aE/F97T/T98G/F99L/C122S/Q175L/Q192A (enzyme)
chain: B37 chain with Q23L, H25P, I26T, Y47V, F50H, Y52L, G189A
B39: MTSP-1 Q38R/I41T/D60bH/ins97aE/F97T/T98G/F99L/C122S/Q175L/Q192G (enzyme)
chain: B37 chain with Q23R, I26T, Y47H
B40: MTSP-1 ins97aY/F97H/F99L/C122S/Q175M/Q192A/D217V (enzyme)
chain: B37 chain with Y47D, T92H, E93Y, G94T, L170M, G189A, D215V
B41: MTSP-1 Q38K/I41T/ins97aE/F97T/T98G/F99L/C122S/Q175L/Q192A (enzyme)
chain: B37 chain with Q23K, I26T, Y47D, G189A
B42: MTSP-1 Q38R/I41V/D60bV/F60eV/Y60gF/ins97aE/F97T/T98G/F99L/C122S/Q175L/Q192G (enzyme)
chain: B37 chain with Q23R, I26V, Y47V, F50V, Y52F
B43: MTSP-1 ins97aA/F97G/T98L/C122S/Q175M/Q192A/D217I/K224R (enzyme)
chain: B37 chain with Y47D, T92G, E93A, G94L, L95F, L170M, G189A, D215I, K222R
B44: MTSP-1 ins97aY/F97G/T98V/C122S/Q175M/Q192S/D217V (enzyme)
chain: B37 chain with Y47D, T92G, E93Y, G94V, L95F, L170M, G189S, D215V
B45: MTSP-1 Q38L/I41T/D60bV/F60eH/Y60gL/ins97aE/F97T/T98G/F99L/C122S/Q175L/Q192S (enzyme)
chain: B37 chain with Q23L, I26T, Y47V, F50H, Y52L, G189S
B46: MTSP-1 ins97aL/F97Q/T98G/F99L/C122S/Q175M/Q192S/D217I (enzyme)
chain: B37 chain with Y47D, T92Q, E93L, L170M, G189S, D215I
B47: MTSP-1 I41T/D60bY/F97T/ins97aE/T98G/F99L/C122S/Q175L/Q192G (enzyme)
chain: B37 chain with I26T
B48: MTSP-1 Q38E/I41V/D60bF/F60eK/Y60gF/F97T/ins97aE/T98G/F99L/C122S/Q175L/Q192G (enzyme)
chain: B37 chain with Q23E, I26V, Y47F, F50K, Y52F

What follows are binders tested against plasma purified human complement protein C3 (human) (UniProt P01024) (assay: cell-based or functional assay).
Chain of plasma purified human complement protein C3 (human) (P01024 23-667, chain 1 of 2): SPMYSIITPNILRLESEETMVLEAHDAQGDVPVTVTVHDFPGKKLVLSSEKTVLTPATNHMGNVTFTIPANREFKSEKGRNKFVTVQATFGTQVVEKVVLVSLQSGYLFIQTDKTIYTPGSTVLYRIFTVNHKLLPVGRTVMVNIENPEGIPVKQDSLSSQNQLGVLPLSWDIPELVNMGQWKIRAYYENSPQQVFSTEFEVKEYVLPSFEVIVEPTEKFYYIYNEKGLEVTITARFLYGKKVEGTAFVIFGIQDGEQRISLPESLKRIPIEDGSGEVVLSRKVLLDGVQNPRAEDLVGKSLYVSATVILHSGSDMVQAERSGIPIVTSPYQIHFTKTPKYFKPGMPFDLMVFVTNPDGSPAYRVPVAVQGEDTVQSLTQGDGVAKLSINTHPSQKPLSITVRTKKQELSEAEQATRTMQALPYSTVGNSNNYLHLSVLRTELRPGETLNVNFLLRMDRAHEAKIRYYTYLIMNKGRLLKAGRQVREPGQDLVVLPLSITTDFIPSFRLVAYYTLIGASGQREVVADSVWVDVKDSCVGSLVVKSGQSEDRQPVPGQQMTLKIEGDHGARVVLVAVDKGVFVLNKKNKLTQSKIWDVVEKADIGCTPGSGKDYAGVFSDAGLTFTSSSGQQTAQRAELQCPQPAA
Chain of plasma purified human complement protein C3 (human) (P01024 672-1663, chain 2 of 2): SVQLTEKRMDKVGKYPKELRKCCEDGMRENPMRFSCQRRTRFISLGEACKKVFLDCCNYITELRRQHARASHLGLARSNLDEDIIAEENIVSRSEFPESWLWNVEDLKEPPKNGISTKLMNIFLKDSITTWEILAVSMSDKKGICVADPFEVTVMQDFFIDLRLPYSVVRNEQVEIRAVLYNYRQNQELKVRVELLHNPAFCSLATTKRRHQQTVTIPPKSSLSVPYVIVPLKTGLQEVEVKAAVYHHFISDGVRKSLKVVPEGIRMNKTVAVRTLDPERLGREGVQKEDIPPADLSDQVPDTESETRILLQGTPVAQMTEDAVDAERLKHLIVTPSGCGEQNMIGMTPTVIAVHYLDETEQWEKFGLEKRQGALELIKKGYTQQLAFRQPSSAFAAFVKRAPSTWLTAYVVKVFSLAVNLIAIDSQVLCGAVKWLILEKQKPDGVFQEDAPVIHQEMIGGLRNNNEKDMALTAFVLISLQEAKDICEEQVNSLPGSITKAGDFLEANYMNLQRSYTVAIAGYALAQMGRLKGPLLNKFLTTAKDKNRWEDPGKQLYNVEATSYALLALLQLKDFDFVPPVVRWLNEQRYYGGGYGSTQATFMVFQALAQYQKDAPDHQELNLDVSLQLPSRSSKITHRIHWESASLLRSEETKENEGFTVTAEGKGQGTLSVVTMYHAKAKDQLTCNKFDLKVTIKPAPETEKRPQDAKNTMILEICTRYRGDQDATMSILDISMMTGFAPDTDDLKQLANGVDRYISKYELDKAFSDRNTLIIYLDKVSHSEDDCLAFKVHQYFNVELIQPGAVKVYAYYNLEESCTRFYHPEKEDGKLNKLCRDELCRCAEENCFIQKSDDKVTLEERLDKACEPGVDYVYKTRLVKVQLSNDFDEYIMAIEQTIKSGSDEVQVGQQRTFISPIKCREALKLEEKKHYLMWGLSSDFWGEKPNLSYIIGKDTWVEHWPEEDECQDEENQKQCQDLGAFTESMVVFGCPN

Binder	EC50 of hC3 cleavage
B1	22.6 nM
B2	22.2 nM
B3	6.06 nM
B4	7.43 nM
B5	10.9 nM
B6	6.42 nM
B7	2.71 nM
B8	1.25 nM
B9	5.04 nM
B10	20.2 nM
B11	39.8 nM
B12	10.6 nM
B13	5.31 nM
B14	27.7 nM
B15	16.9 nM
B16	15.4 nM
B17	14.6 nM
B18	22.9 nM
B19	22.5 nM
B20	32.7 nM
B21	25 nM
B22	48.3 nM
B23	10.2 nM
B24	3.06 nM

Binder	EC50 of hC3 cleavage
B25	13.8 nM
B26	3.09 nM
B27	1.57 nM
B28	22.3 nM
B29	6.95 nM
B30	43 nM
B31	6.78 nM
B32	2.43 nM
B33	6.54 nM
B34	22 nM
B35	4.52 nM
B36	4.77 nM
B37	4.1 nM
B38	6.47 nM
B39	26.2 nM
B40	5.72 nM
B41	37.8 nM
B42	18.3 nM
B43	0.866 nM
B44	2.42 nM
B45	13.1 nM
B46	6.67 nM
B47	3.88 nM
B48	14.2 nM
